Like-named read-outs stand apart in the source and are kept apart here.
Assays:
[1] = target: T1, human GLP-1 receptor (human, UniProt P43220 24-463); assay: receptor binding affinity (GLP-1R IC50); assay format not described
T1 construct: whole, on cells; also called hGLP-1R

[2] = target: T2, glucagon receptor of wild-type mice (liver, in vivo) (mouse, UniProt Q61606 27-485); assay: in vivo competition with 125I-glucagon, liver of wild-type mice, s.c. dosing
T2 construct: whole, on cells; Receptor occupancy measured in vivo in liver; also called GCGR; GGCR
T2 sequence (Q61606 27-485): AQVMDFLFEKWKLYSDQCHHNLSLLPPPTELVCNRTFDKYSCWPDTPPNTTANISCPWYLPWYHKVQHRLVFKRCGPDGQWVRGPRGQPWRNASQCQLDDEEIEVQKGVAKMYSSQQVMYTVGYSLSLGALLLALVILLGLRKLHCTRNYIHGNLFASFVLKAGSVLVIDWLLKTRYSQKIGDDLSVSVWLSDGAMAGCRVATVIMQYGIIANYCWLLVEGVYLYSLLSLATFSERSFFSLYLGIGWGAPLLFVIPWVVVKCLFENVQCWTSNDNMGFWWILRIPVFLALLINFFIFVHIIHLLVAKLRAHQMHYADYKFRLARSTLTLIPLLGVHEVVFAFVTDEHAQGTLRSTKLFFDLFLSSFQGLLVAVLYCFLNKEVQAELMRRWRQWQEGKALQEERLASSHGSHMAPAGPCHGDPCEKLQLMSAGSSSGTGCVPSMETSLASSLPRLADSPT

[3] = target: T1, human GLP-1 receptor; assay: cell-based or functional assay
[4] = target: T3, human glucagon receptor (human, UniProt P47871 26-477); assay: cell-based or functional assay
T3 sequence (P47871 26-477): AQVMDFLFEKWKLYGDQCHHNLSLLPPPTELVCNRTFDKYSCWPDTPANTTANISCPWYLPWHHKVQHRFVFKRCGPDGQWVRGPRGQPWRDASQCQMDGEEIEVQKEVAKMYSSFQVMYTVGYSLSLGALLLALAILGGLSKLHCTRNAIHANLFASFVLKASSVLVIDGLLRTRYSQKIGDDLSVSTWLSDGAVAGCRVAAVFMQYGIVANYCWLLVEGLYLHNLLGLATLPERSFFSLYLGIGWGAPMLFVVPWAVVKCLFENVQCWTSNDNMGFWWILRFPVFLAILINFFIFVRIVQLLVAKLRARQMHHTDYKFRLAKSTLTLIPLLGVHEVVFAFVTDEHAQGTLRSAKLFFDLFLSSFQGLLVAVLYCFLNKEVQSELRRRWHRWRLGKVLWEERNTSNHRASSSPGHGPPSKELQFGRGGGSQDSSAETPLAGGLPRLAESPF

[5] = target: T2, glucagon receptor of wild-type mice …; assay: in vivo GCGR receptor occupancy, competition assay in wild-type mice, 3 mpk s.c.
[6] = target: T1, human GLP-1 receptor; assay: cell-based or functional assay; remark: listed apart in the source
[7] = target: T3, human glucagon receptor; assay: cell-based or functional assay; remark: listed apart in the source

B1: OXM-Q3E (peptide)
peptide: HSEGTFTSDYSKYLDSRRAQDFVQWLMNTKRNRNNIA
notes: Native OXM with Glu instead of Gln at position 3; the entry already carries the change; also called OXM8 (Q3E); GLP-1 mimetic
- IC50 [1]: 237 nM
- binding result [2]: no binding
- GLP-1R EC50 [3]: 12.4 nM
- % Activation of GCGR [4]: 17%
- GCGR EC50 [4]: 1640 nM

Binder: HSDGTFTSDYSKYLDSRRAQDFVQWLMNTKRNRNNIA [OXM-Q3D]
- GLP-1R EC50 [3]: 2.3 nM
- % Activation of GCGR [4]: 1%
- GCGR EC50 [4]: 3400 nM

Binder: HXQGTFTSDYSKYLDSRRAQDFVQWLMNTKRNRNNIAK (Aib at position 2; K(palmitoyl) at position 38; C-terminal amide) [OXM177]
- % RO @ 3 mpk s.c. [5]: 30%
- GLP-1R EC50 [6]: 0.1 nM
- % Activation of GCGR [7]: 93%
- GCGR + 10% plasma [7]: 3 nM
- GCGR + 10% plasma (fold shift) [7]: 5 fold
- GCGR EC50 [7]: 0.59 nM

Binder: HXQGTFTSDYSKYLDSRRAQDFVQWLMNTKRNRNNIAC (Aib at position 2; C7 = Cys(Oxa4-cholesterol) at position 38; C-terminal amide) [OXM216]
- % RO @ 3 mpk s.c. [5]: 10%
- GLP-1R EC50 [6]: 3.1 nM
- % Activation of GCGR [7]: 93%
- GCGR + 10% plasma [7]: 12 nM
- GCGR EC50 [7]: 0.63 nM

B2: OXM115 (peptide)
peptide: HSQGTFTSDYSKYLDSRRAQDFVQWLMNTKRNRNNIAC
modifications: D-Ser at position 2; C7 = Cys(Oxa4-cholesterol) at position 38; C-terminal amide
- % RO @ 3 mpk s.c. [5]: 36%
- GLP-1R EC50 [6]: 0.08 nM
- % Activation of GCGR [7]: 100%
- GCGR + 10% plasma [7]: 0.64 nM
- GCGR EC50 [7]: 0.33 nM
